Results published in patent publication EP1403367A1, “METHOD OF TESTING DRUG FOR TREATING OR PREVENTING DISEASES SUCH AS HYPERLIPEMIA” (Sankyo Company Limited, priority 2001, dated 2002).
Each block holds one compound with its values, some of them ahead of it.

What was measured:
[1] = molecular target: lipoprotein lipase (LPL) originated from a rat fat cell (rat) (UniProt Q06000); assay: cell-based or functional assay
[2] = molecular target: hepatic triacylglycerol lipase (HTGL) in mouse plasma after administering heparin intravenously (mouse) (UniProt P27656); assay: cell-based or functional assay
UniProt P27656, sequence (P27656 22-510 limits assumed): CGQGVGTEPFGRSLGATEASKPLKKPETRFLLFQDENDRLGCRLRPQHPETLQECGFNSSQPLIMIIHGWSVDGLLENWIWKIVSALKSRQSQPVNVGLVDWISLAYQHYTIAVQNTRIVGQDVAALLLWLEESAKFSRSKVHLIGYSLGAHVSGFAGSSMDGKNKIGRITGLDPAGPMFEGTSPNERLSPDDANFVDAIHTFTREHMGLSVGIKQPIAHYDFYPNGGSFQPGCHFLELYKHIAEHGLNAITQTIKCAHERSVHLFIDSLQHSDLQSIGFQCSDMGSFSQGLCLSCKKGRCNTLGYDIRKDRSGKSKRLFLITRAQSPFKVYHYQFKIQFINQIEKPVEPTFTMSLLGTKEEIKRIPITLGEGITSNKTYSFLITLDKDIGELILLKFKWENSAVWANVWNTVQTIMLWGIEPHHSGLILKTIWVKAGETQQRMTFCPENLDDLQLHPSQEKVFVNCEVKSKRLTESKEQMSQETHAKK

[3] = molecular target: lipoprotein lipase (LPL) in mouse plasma after administering heparin intravenously (mouse) (UniProt P11152); assay: cell-based or functional assay
UniProt P11152, sequence (P11152 28-474 limits assumed): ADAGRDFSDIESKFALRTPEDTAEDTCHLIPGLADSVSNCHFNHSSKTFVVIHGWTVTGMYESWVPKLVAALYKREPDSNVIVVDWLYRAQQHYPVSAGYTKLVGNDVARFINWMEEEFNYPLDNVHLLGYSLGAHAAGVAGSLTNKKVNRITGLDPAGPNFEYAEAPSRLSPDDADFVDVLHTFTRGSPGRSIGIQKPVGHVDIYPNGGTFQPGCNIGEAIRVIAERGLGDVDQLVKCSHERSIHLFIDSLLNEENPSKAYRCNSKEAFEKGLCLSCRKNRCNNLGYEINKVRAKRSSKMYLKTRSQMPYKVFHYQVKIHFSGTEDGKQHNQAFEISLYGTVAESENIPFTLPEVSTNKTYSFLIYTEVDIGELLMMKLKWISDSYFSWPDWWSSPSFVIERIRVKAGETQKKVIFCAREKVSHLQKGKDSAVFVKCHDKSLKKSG

[4] = Concentration of neutral fat in blood after bezafibrate in feed; type: in vivo, Zucker fatty rats; details: 0.3% in F2 powder feed for seven days; compared to the control group
From the text: (§1) For seven days, the antilipemic bezafibrate (manufactured by Sigma) mixed with F2 powder feed (manufactured by Funabashi Noujou) at 0.3% of concentration was administrated to two Zucker fatty rats (purchased from Nihon Charles River) of age 11 weeks.
(§2) To the two rats in the control group only F2 powder feed was given. After collecting blood samples from each of the rats under both conditions, the liver thereof was extracted, put in liquid nitrogen immediately to be frozen rapidly, and kept at -80 °C. 5 ml of TRIzol reagent (manufactured by Gibco BRL) were added to 0.1 g of the liver tissue obtained, and it was homogenized on ice using an ultra high-speed homogenizer (Polytoron, manufactured by ckinematica) (at dial 10 for 2 minutes). After incubation for 5 minutes at a room temperature, 1 ml of chloroform was added and mixed vigorously for 15 seconds.

[5] = system: rat "angiopoietin-related protein 3" gene; assay: TaqMan PCR quantification of liver angiopoietin-related protein 3 gene expression after bezafibrate in feed; type: in vivo, Zucker fatty rats; details: 0.3% in F2 powder feed for seven days, compared to the control group, corrected with 18S ribosome
From the text: as §1
as §2, with “seconds. […]” for “seconds.”
A single stranded cDNA was produced according to the following procedures. […] After completion of the reaction, 29 µl of ribonuclease-free purified water was added to each of the samples, and diluted with ribonuclease-free purified water a further 5 times for use in the following quantification. The single-stranded cDNA solution for creation of a calibration-curve was prepared by producing a 5-times serial dilution with ribonuclease-free purified water from the solution for quantification derived from one control sample. […]

UniProt Q06000, sequence (Q06000 28-474 limits assumed): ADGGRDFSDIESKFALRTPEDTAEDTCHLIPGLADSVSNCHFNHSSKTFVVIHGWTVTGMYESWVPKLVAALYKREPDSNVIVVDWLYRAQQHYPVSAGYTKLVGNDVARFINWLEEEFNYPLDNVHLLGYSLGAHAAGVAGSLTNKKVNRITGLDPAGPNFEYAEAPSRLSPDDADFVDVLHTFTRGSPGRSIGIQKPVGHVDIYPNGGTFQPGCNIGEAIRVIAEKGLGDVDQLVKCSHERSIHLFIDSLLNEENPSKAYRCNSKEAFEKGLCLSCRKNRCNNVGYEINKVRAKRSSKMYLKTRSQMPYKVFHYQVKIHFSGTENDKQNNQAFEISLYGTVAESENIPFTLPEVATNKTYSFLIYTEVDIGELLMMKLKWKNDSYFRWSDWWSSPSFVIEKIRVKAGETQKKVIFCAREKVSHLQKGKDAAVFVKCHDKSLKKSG

Compound: GST-ARP4N (glutathione-S-transferase connected to the amino terminus of amino acid numbers 26-143 of SEQ ID No. 16, angiopoietin related protein 4) (from UniProt P08515 1-218)
LPL activity (%) at 1 µg/ml GST-ARP4N (GST 10 µg/ml = 100 %) [1]: 74%
LPL activity (%) at 2.5 µg/ml GST-ARP4N (GST 10 µg/ml = 100 %) [1]: 61%
LPL activity (%) at 5 µg/ml GST-ARP4N (GST 10 µg/ml = 100 %) [1]: 34%
LPL activity (%) at 10 µg/ml GST-ARP4N (GST 10 µg/ml = 100 %) [1]: 16%

Compound: human angiopoietin-related protein 3 (polypeptide consisting of amino acid numbers 17-460 of SEQ ID No. 4) (ligand)
relative value of LPL activity (%) at 0 µg/ml polypeptide [1]: 100%
relative value of LPL activity (%) at 1 µg/ml polypeptide [1]: 84%
relative value of LPL activity (%) at 2.5 µg/ml polypeptide [1]: 64%
relative value of LPL activity (%) at 5 µg/ml polypeptide [1]: 52%
relative value of LPL activity (%) at 10 µg/ml polypeptide [1]: 29%
relative value of HTGL activity (%) at 0 µg/ml polypeptide [2]: 100%
relative value of HTGL activity (%) at 1 µg/ml polypeptide [2]: 109%
relative value of HTGL activity (%) at 2.5 µg/ml polypeptide [2]: 94%
relative value of HTGL activity (%) at 5 µg/ml polypeptide [2]: 80%
relative value of HTGL activity (%) at 10 µg/ml polypeptide [2]: 64%
relative value of LPL activity (%) at 0 µg/ml polypeptide [3]: 100%
relative value of LPL activity (%) at 1 µg/ml polypeptide [3]: 93%
relative value of LPL activity (%) at 2.5 µg/ml polypeptide [3]: 82%
relative value of LPL activity (%) at 5 µg/ml polypeptide [3]: 70%
relative value of LPL activity (%) at 10 µg/ml polypeptide [3]: 49%

Compound: CC(C)(Oc1ccc(CCNC(=O)c2ccc(Cl)cc2)cc1)C(=O)O [bezafibrate]
concentration of neutral fat in blood reduced [4]: 50%
level of expression of a rat "angiopoietin-related protein 3" gene decreased [5]: 73%

The next lines start with the values.

relative value of LPL activity (%) at 1 µg/ml GST-ARP4Full (GST 10 µg/ml = 100 %) [1]: 67%
relative value of LPL activity (%) at 2.5 µg/ml GST-ARP4Full (GST 10 µg/ml = 100 %) [1]: 30%
relative value of LPL activity (%) at 5 µg/ml GST-ARP4Full (GST 10 µg/ml = 100 %) [1]: 16%
relative value of LPL activity (%) at 10 µg/ml GST-ARP4Full (GST 10 µg/ml = 100 %) [1]: 5%
Compound: GST-ARP4Full (glutathione-S-transferase connected to the amino terminus of amino acid numbers 26-406 of SEQ ID No. 16, angiopoietin related protein 4) (from UniProt P08515 1-218)

relative value of LPL activity (%) at 0 µg/ml KhAP5 CC/His [1]: 100%
relative value of LPL activity (%) at 1 µg/ml KhAP5 CC/His [1]: 27%
relative value of LPL activity (%) at 2.5 µg/ml KhAP5 CC/His [1]: 21%
relative value of LPL activity (%) at 5 µg/ml KhAP5 CC/His [1]: 14%
relative value of LPL activity (%) at 10 µg/ml KhAP5 CC/His [1]: 11%
Compound: KhAP5 CC/His (N terminal 207 amino acid partial protein of angiopoietin-related protein 3 with a histidine tag inserted after residue 20) (ligand)
